The values below are quoted from earlier work in PMC7153410.

The target in series [1] is MD-2 (UniProt Q9JHF9).
Series [2] deals with TLR4-MD-2 (Homo sapiens) (UniProt O00206).
Series [3] has as its target RAGE (Homo sapiens) (UniProt Q15109).
For series [4], the target named is TLR4-MD-2 (Homo sapiens) (UniProt O00206). The source holds these as a separate data set.
Series [5] addresses RAGE (Homo sapiens) (UniProt Q15109). The source holds these as a separate data set.
Series [6] has the same target. The source holds these as a separate data set.
The target in series [7] is MD-2 (UniProt Q9JHF9). This is another data set of the same source.

Where two headings read alike, the source gives them in different places.

Chain of UniProt Q15109 (Q15109 23-404): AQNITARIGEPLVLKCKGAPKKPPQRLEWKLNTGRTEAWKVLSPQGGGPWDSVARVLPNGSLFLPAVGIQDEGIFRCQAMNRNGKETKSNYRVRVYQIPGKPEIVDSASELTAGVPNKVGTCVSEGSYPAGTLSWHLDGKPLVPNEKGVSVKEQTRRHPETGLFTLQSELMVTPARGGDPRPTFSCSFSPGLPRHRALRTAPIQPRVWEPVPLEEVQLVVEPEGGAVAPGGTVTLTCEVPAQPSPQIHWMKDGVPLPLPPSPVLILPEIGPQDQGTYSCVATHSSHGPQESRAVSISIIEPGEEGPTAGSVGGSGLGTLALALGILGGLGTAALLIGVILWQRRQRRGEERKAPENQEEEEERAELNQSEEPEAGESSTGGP
Chain of UniProt Q9JHF9 (Q9JHF9 19-160): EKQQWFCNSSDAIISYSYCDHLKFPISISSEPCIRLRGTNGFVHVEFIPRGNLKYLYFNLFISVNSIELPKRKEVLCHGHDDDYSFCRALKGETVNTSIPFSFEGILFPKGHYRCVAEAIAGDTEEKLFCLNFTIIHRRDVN
Chain of UniProt O00206 (O00206 24-839, chain 1 of 2): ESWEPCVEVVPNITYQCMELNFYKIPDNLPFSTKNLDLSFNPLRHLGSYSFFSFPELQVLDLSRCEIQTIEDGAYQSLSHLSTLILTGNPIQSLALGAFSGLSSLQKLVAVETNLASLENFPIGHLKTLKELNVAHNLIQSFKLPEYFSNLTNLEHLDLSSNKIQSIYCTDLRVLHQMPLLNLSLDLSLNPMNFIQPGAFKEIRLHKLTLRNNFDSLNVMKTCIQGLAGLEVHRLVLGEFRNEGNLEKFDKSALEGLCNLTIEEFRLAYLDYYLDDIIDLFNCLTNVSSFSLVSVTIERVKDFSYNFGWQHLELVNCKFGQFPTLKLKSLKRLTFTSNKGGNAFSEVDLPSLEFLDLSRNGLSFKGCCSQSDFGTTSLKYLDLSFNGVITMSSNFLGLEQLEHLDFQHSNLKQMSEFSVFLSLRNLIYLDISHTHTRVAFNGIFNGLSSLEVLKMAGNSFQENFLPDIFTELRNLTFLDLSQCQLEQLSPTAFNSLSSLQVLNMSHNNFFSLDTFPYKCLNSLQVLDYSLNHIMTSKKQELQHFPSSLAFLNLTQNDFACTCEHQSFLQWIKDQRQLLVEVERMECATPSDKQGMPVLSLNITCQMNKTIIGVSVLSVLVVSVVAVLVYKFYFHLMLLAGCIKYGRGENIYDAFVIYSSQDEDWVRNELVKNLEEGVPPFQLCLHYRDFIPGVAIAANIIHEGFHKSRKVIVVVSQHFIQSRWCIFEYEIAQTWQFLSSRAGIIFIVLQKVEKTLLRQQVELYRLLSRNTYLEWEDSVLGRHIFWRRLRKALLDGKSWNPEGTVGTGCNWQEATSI
Chain of UniProt O00206 (Q9Y6Y9 19-160, chain 2 of 2, further chain): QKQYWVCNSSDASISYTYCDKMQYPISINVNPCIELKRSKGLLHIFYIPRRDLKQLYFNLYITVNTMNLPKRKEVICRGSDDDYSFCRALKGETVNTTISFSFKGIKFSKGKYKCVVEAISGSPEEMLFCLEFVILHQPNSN

On to S100A8 2-89 (from UniProt P27005), for which the Kd (in general, the free concentration of one partner at which half of the binding sites on the other are occupied at equilibrium, for simple one-to-one binding) with MD-2 [1] was 730 nM.

On to S100A8-S100A9 (from UniProt P05109), for which the Kd with TLR4-MD-2 (Homo sapiens) [2] was 3.8 nM; in the series with RAGE (Homo sapiens) [3] it was 9.4 nM.

Consider S100A9 (from UniProt P06702), for which the values for the dissociation constant (Kd) in the series with TLR4-MD-2 (Homo sapiens) [4] and with RAGE (Homo sapiens) [5] were 2.1 nM and 38 nM, respectively.

For S100A12 (from UniProt P80511), the Kd with RAGE (Homo sapiens) [6] is 90 nM.

Turning to SAA3 43-57 (from UniProt P04918), the Kd with MD-2 [7] is 30000 nM.
